{
  "source": "patent US8409836B2",
  "about": "“Treatment of cellulosic material and enzymes useful therein” (Roal Oy, priority 2005, dated 2013)",
  "molecules": {"B1": {"name": "Ta EG_28: endoglucanase of Thermoascus aurantiacus ALKO4242, gene Ta cel5A, amino acid SEQ ID NO: 10 (protein)", "chain": "MKLGSLVLALSAARLTLSAPLADRKQETKRAKVFQWFGSNESGAEFGSQNLPGVEGKDYIWPDPNTIDTLISKGMNIFRVPFMMERLVPNSMTGSPDPNYLADLIATVNAITQKGAYAVVDPHNYGRYYNSIISSPSDFQTFWKTVASQFASNPLVIFDTNNEYHDMDQTLVLNLNQAAIDGIRSAGATSQYIFVEGNSWTGAWTWTNVNDNMKSLTDPSDKIIYEMHQYLDSDGSGTSATCVSSTIGQERITSATQWLRANGKKGIIGEFAGGANDVCETAITGMLDYMAQNTDVWTGAIWWAAGPWWGDYIFSMEPDNGIAYQQILPILTPYL"}},
  "key": {"[1]": {"assay": "Temperature optimum of heterologously produced endoglucanases", "format": "biochemical", "details": "temperature range 50-85° C., CMC", "protocol": "(§1) The pH optimum of the heterologously produced endoglucanases was determined in the universal McIlvaine's buffer within a pH range of 4.0-8.0 using carboxymethylcellulose as substrate. As shown in FIG. 6 A the broadest pH range (4.5-6.0) is that of the Acremonium EG—40/Cel45A protein, the optimum being at pH 5.5. The pH optima for the other heterologously produced endoglucanases are pH 5.0-5.5 and 6.0 for Acremonium EG—40_like/Cel45B and Thermoascus EG—28/Cel5A, respectively. The optimal temperature for enzymatic activity of these endoglucanases was determined at the temperature range of 50-85° C. as described above. The highest activity of the enzymes was determined to be at 75° C., 60° C., and 75° C. for the Acremonium EG—40/Cel45A, EG—40 like/Cel45B, and Thermoascus EG—28/Cel5A, respectively (FIG. 6 B)."}, "[2]": {"assay": "Hydrolysis with endoglucanase preparations, spruce", "format": "biochemical", "details": "48 h, 45° C., pH 5.0", "protocol": "The preparations containing the endoglucanases were compared in hydrolysis studies mixed with the purified CBH/Cel7 and CBH/Cel6 enzymes on several pre-treated substrates. Culture filtrates of T. reesei, containing different cloned endoglucanase enzymes were obtained as described in Example 19. The enzymes were enriched by removing thermolabile proteins from the mixtures by a heat treatment (60° C., 2 h, pH 5) and the supernatant was used for the hydrolysis studies. In addition, pure T. reesei cellulases (purified as described by Suurnäkki et al., 2000) were used in the enzyme mixtures. The endoglucanases used in the experiment were:\nWashed steam pre-treated spruce fibre (impregnation with 3% SO2 for 20 min, followed by steam pre-treatment at 215° C. for 5 min), dry matter 25.9% (SPRUCE).\nThe endoglucanases to be studied (dosage 840 nkat/g dry matter, based on endoglucanase activity against HEC according to IUPAC, 1987) were used either with cellobiohydrolases of T. reesei (CBHI/Cel7A, 8.1 mg/g d.m. and CBHII/Cel6A, 2.0 mg/g d.m.) or with Thermoascus aurantiacus Cel7A with genetically attached CBD of T. reesei (10.1 mg/g d.m.). Purified (Suurnäkki et al., 2000) EGI (Cel7B) and EGII (Cel5A) of T. reesei were also included in the experiments for comparison. All mixtures were supplemented with additional β-glucosidase from Novozym 188 (to make the total β-glucosidase dosage 560 nkat/g d.w., the relatively high dosage was used to compensate the differences in the background activities of the different EG preparations). Triplicate tubes were incubated in mixing at 45° C. for 48 h and reference samples with inactivated enzymes and corresponding substrates were prepared. The release of hydrolysis products was measured as reducing sugars with DNS method using glucose as standard (Table 31)."}, "[3]": {"assay": "Isoelectric focusing (PhastSystem), pI of purified protein", "format": "physicochemical", "details": "IEF gel", "protocol": "The sample was dissolved in water and applied to a Superdex 75 HR 10/30 gel filtration column equilibrated with 20 mM sodium phosphate pH 6.0, containing 0.15 M NaCl. Fractions were collected and those containing endoglucanase activity were combined. The protein eluate was judged to be pure by SDS-polyacrylamide gel electrophoresis and the molecular mass was evaluated on the basis of molecular mass standards (prestained SDS-PAGE standards, Broad Range, Bio-Rad) to be 54 kDa. The pI of the purified protein, designated as Ct EG—54 was determined with PhastSystem (Pharmacia) to be ca 5.5.\nThe sample was applied to a Sephacryl S-100 HR 26/60 gel filtration column equilibrated with 50 mM sodium acetate buffer pH 5.0, containing 0.05 M NaCl. The protein fraction containing endoglucanase activity was eluted from the column with a retention volume corresponding to a molecular weight of 16 kDa. Collected fractions were combined, concentrated and gel filtration was repeated. The protein eluate was judged to be pure by SDS-polyacryl amide gel electrophoresis and the molecular weight was evaluated to be 28 kDa. The pI of the purified protein, designated as Ta EG—28, was determined in an IEF gel (PhastSystem, Pharmacia) to be about 3.5. The specific activity of Ta EG—28 at 50° C. was determined to be 4290 nkat/mg (procedure of IUPAC 1987, using CMC as substrate).\nThe active material from the anion exchange chromatography was applied to a Sephacryl S-300 HR 26/60 column equilibrated with 20 mM sodium phosphate pH 6.5, containing 0.15 M NaCl. The protein with β-glucosidase activity was eluted with a retention volume corresponding to a molecular weight of 243 kDa. The protein was judged to be pure by SDS-polyacrylamide gel electrophoresis and the molecular weight was evaluated to be 101 kDa. The pI of the purified protein, designated as At βG—101, was determined in an IEF gel (PhastSystem, Pharmacia) to be in the area of 5.6-4.9. The specific activity of At βG—101 at 50° C. was determined to be 1100 nkat/mg (using 4-nitrophenyl-β-D-glucopyranoside as substrate, Bailey and Linko, 1990).\nThe active material from the cation exchange chromatography was applied to a Sephacryl S-300 HR 26/60 column equilibrated with 20 mM sodium phosphate pH 7.0, containing 0.15 M NaCl. The protein with β-glucosidase activity was eluted with a retention volume corresponding to a molecular weight of 294 kDa. […] The protein was judged to be pure by SDS-polyacrylamide gel electrophoresis and the molecular weight was evaluated to be 81 kDa, representing most likely the monomeric form of the protein. […] The specific activity of the purified protein, designated as Ta βG—81, at 50° C. was determined to be 600 nkat/mg using 4-nitrophenyl-β-D-glucopyranoside as substrate (Bailey and Linko, 1990). […]"}, "[4]": {"assay": "pH optimum of heterologously produced endoglucanases", "format": "biochemical", "details": "McIlvaine's buffer, pH range 4.0-8.0, CMC, 10 min, 50° C.", "protocol": "as §1"}},
  "data": [
    {"molecule": "B1", "values": [
      {"measurement": "Temperature of highest activity", "setting": "[1]", "result": 75, "unit": "°C"},
      {"measurement": "Hydrolysis products as reducing sugars, SPRUCE", "setting": "[2]; with CBHI and CBHII of T. reesei", "result": 3.0, "unit": "mg/mL"},
      {"measurement": "Hydrolysis products as reducing sugars, SPRUCE", "setting": "[2]; with T. aurantiacus Cel7A + Tr CBD", "result": 1.5, "unit": "mg/mL"},
      {"measurement": "pI of the purified protein", "setting": "[3]", "result": "about 3.5"},
      {"measurement": "pH optimum", "setting": "[4]", "result": 6.0}
    ]}
  ]
}
